These results are taken from the PETadex activity labels (doi:10.1021/bi00096a018).

Substrate in this data set: Acetylcholine
As to conditions: pH 7; 22 °C.

Where a chain is given by its changes, count along the chain named.

B1: unnamed (protein)
chain: MRPPWYPLHTPSLAFPLLFLLLSLLGGGARAEGREDPQLLVRVRGGQLRGIRLKAPGGPVSAFLGIPFAEPPVGSRRFMPPEPKRPWSGVLDATTFQNVCYQYVDTLYPGFEGTEMWNPNRELSEDCLYLNVWTPYPRPASPTPVLIWIYGGGFYSGAASLDVYDGRFLAQVEGAVLVSMNYRVGTFGFLALPGSREAPGNVGLLDQRLALQWVQENIAAFGGDPMSVTLFGESAGAASVGMHILSLPSRSLFHRAVLQSGTPNGPWATVSAGEARRRATLLARLVGCPPGGAGGNDTELIACLRTRPAQDLVDHEWHVLPQESIFRYSFVPVVDGDFLSDTPEALINTGDFQDLQVLVGVVKDEGSYFLVYGVPGFSKDNESLISRAQFLAGVRIGVPQASDLAAEAVVLHYTDWLHPEDPTHLRDAMSAVVGDHNVVCPVAQLAGRLAAQGARVYAYIFEHRASTLTWPLWMGVPHGYEIEFIFGLPLDPSLNYTTEERIFAQRLMKYWTNFARTGDPNDPRDSKSPQWPPYTTAAQQYVSLNLKPLEVRRGLRAQTCAFWNRFLPKLLSATDTLDEAERQWKAEFHRWSSYMVHWKNQFDHYSKQERCSDL
For orientation: Km means the concentration of substrate that gives half-maximal velocity. For orientation: kcat means the maximal rate divided by the concentration of active sites. Regarding B1, the Michaelis-Menten constant (Km) amounted to 58 µM and the turnover number (kcat) turned out to be 650 s⁻¹.

B2: unnamed (protein)
chain: B1 chain with Y103N, Y155Q, Y328F
For the protein B2, the Km worked out at 95 µM and the kcat was 1570 s⁻¹.

B3: unnamed (protein)
chain: B1 chain with Y328F, V331G
On to B3, for which the Km was 50 µM and the catalytic constant (kcat) was 2670 s⁻¹.

B4: unnamed (protein)
chain: B1 chain with W317R, Y328F
Consider B4, for which the Km was 420 µM and the turnover number (kcat) was 2670 s⁻¹.

B5: unnamed (protein)
chain: B1 chain with Y155Q, Y328F
Regarding B5, the Km stood at 120 µM and the kcat worked out at 1830 s⁻¹.

B6: unnamed (protein)
chain: B1 chain with Y103N, W317R, Y328F
Consider B6, for which the Km worked out at 670 µM and the catalytic constant (kcat) turned out to be 3170 s⁻¹.

B7: unnamed (protein)
chain: B1 chain with Y103N, Y328F
For B7, the Michaelis-Menten constant (Km) was 110 µM and the kcat worked out at 2170 s⁻¹.

B8: unnamed (protein)
chain: B1 chain with Y328F, Y368F
With B8, the Km was 53 µM and the kcat was 1130 s⁻¹.
